# Experiment: yeast display, Sf9 membrane polyspecificity reagent, FACS + sequencing; frameworks hold sequencing errors
# Outline: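 Sorting gates, low and high (top ~1%), were placed on anti-HA fluorescence to track expression and on streptavidin fluorescence to track reagent binding. A clone's polyreactivity label is taken from the gate it came out of. The reagent was 10% biotinylated, detergent-solubilized Sf9 membrane, applied for 1 hour at 4 °C to galactose-induced yeast display cells.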
row,Sequence,polyreactivity (PSR sort gate)
1,QVQLVESGGRLVQAGGSLRLSCAASGFTFYGYAMGWYRQAPGKERELVAAISRGGGRTYYADSVKGRFTISRDNAKNTVYLQMNSLKPEDTAVYYCAAQGGSKTSSRSYGYWGQGTQVTVSS,high polyreactivity
2,QVQLVESGGRLVQAGGSLRLSCAASGFTIPHYAMGWYRQAPGKERELVAVISFSGGRTYYADSVKGRFTISRDNAKNTVYLQMNSLKPEDTAVYYCPAGFWDDYGKYYYWGQGTQVTVSS,high polyreactivity
3,QVQLVESGGRLVQAGGSLRLSCAASGFTYQGNAMGWYRQAPGKERVLVAAISRGGSTYYADSVKGRFTISRDNAKNTVYLQMNRLKPEDTAVYYGAAKPSVDLDYWGQGTQVTVSS,high polyreactivity
4,QVQLVESGGRLVQAGGSLRLSCAASGIFYTYDMGRYRQAPGKERELVATINSGGSTNYADSVKGRFTISRDNAKNTVYLQMNSLKPEDTAVYYCAAAEDVYSERPRYDYWGQGTQVTVSS,low polyreactivity
5,QVQLVESGGRLVQAGGSLRLSCAASGITFYLYAMGWYRQAPGKERELVAAISSSGGSTYYADSVKGRFTISRDNEKNTVYLQMNSLKPEDTAVYYCAAVFYTSVTIYDYWGQGTQVTVSS,high polyreactivity
6,QVQLVESGGRLVQAGGSLRLSCAASGNIFTVNAMGWYRQAPGKERELVAAISVGDGTTYYADSVKGRFTISRDNAKNTVYLQMNSLKPEDTAVYYCAAEGYTDYEYWGQGTQVTVSS,high polyreactivity
7,QVQLVESGGRLVQAGGSLRLSCAASGNIFYYYAMGCYTQAHGKERELVAAISADCGRTYYADSVKGRFTISRDTAKNTVYLQMNSLQPEDTAVYYWNVLGRARTQTRYNYWGQGTQVTVSS,high polyreactivity
8,QVQLVESGGRLVQAGGSLRLSCAASGRIFLNYDMGWYRQAHGKERELVAAITWSTGSTYADSVKGRFTISRDNAKNNVYLKMNSLKPEVTAVYYCAAPWGQTDDRHKGGDYWGQGSQVTVSS,low polyreactivity
9,QVQLVESGGRLVQAGGSLRLSCAASGRIFSPYAMGRYRPAPGKERELVAAITQSGGITSYADSVKGRFTISRDNAKNTVYLQMISLKPEDTAVYYCNKDVWDGYDWPEFDYWGQGTQVTVSS,low polyreactivity
10,QVQLVESGGRLVQAGGSLRLSCAASGRILPGNAMGWYRQAPGKEREFVAAISYSGGRTYYADSVKGRFTISRDNAKNNVYLQMNSLKPEDTAVYSCAARSYGSAYYYWGQGTQVTVSS,high polyreactivity
11,QVQLVESGGRLVQAGGSLRLSCAASGRTFFGYAMGWYRQAPGKEWELVAAISSGGRTYYADSVKGRFTISRDNAQNTVYLQMNSLKPEDTAVYSCAAQYSARYYYWGQGTQVTVSS,high polyreactivity
12,QVQLVESGGRLVQAGGSLRLSCAASGRTFGPYAIGRYRQAPGKERELVAAITDTGSGTYYADSVKGRFTISRDNAKNTVYLQMNSLKPEDTAVYYCNAVRKYWGQGTQVTVSS,low polyreactivity
13,QVQLVESGGRLVQAGGSLRLSCAASGRTFGSYAMGWFRQAPGKERELVATIRNSGGISYYADSVKGRFTISRDTAKNTVYLQMNSLKPEDTAVYDCAKLGRYGYDYWGQGTQVTVSS,high polyreactivity
14,QVQLVESGGRLVQAGGSLRLSCAASGRTFIKYAMGWYRQAPGKERELVAAISRNGGSTNYADSVKGRFTISRDNAKNTVYLQMNSLKPEDTAVYYCAAVGTVSRTVGYNYWGQGTQVTVSS,high polyreactivity
15,QVQLVESGGRLVQAGGSLRLSCAASGRTFRPYAMGWYRQAPGKERELVAAISSRGSSTYYADSVKGRFTISRDNAKNTVYLQMNSLKPEDTAVYYCAARSYWGGLRYDYWGQGTQVTVSS,high polyreactivity
16,QVQLVESGGRLVQAGGSLRLSCAASGRTIVIYAMGWYRQAPGKEREFVAAISRSGGSTYYADSVKGRFTISRDNAKNTVYLQMNSLKPEDTAVYYCYTRTPYWFKSDYWGQGTQVTVSS,low polyreactivity
17,QVQLVESGGRLVQAGGSLRLSCAASGRTSGINAMGWYRQAPGKERELVAAISSGGRTYYADSVKGRFTISRDNAKNTVYLQMNSLKPEDTAVYYCAAVIHWSLYRRMEYWGQGTQVTVSS,high polyreactivity
18,QVQLVESGGRLVQAGGSLRLSCAASGSIFGWYAMGWYRQAPGKESEFVASISVTAGSTYYADSVKWRFTISRDNAKNTVYLQMNSLKPEDTAVFYCAADDYTADAVQRFYYWGQGTQVTVSS,low polyreactivity
19,QVQLVESGGRLVQAGGSLRLSCAASGSIFRFNTMGWYRQAPGKERELVAVIRYRSGSTYYADTVKGRFTISRDNAKYTVYLQMNSLKPEDTAVYYCAAKRRSTYDYWGQGTQVTVSS,high polyreactivity
20,QVQLVESGGRLVQAGGSLRLSCAASGSIFTFYALGWYRQAPGKESELVAAISYRGGSTYYADSVRGRFTISRDNAKNTVYLQMNRLKPEDTAVYFCAAGRFPVFFQGYRMEYWGQGTQVTVSS,low polyreactivity
21,QVQLVESGGRLVQAGGSLRLSCAASGSNLLWNTMGWYRQAPGKERELVAGITSGGNTYYADSVKGRFTISRDNAKNTVYLKMNSLKPEDTAVYYCSYYYWGQGTQVTVSS,low polyreactivity

row,Sequence,polyreactivity (PSR sort gate)
1,QVQLVESGGRLVQAGGSLRLSCAASGSTFAANAMGRYRQDPGKDRELVAGITSSGGSTYYADSVKGRFTISRDNAKNTDYLQLTSLKPEDNAVYYCNKDNARYVRMYDSWGQGTQVTVSS,low polyreactivity
2,QVQLVESGGRLVQAGGSLRLSCAASGSTFQFNVMGWYRQAPGKERELVAAITSGASTYYADSVKGRFTISRDNAKNTVYLQMNSLEPEDTAVYYCAVDYSFRYDYVQRYYYWGQGTQVTVSS,high polyreactivity
3,QVQLVESGGRLVQAGGSLRLSCAASGSTFRKYAMGWYIQAPGKERELVASISRGGTTYYADSVKGRFTISRDNAKNTVYLQMNSLKPEDTAVYYCNKASYRWYWGYLDYYYWGQGTQVTVSS,high polyreactivity
4,QVQLVESGGRLVQAGGSLRLSCAASGSTFTRYVMGWYRQAPGKERELVAVISSSGGSTYYADSVKGRFTISRDNAKNTVYLQMNSLKPEDTAVYYCAARYSAKHYGYGYWGQGTQVTVSS,high polyreactivity
5,QVQLVESGGRLVQAGGSLRLSCAASGSTIPYYTMGWYRQAPGKERELVAAIRYSGSSTYYADSVKGRFTISRDNAKNTVYLQMNSLKPEDTAVYYCAKTLWRRRGDRRYRVIEMDHWGQGTQVTVSS,low polyreactivity
6,QVQLVESGGRLVQAGGSLRLSCAASGTFAVYTMGWYRQAPGKERELVAAISSGGSTYYADSVKGRFTISRDNAKNTVYLQMNSLKPEDTAVYYCNKPLSYGYDYWGQGTQVTVSS,high polyreactivity
7,QVQLVESGGRLVQAGGSLRLSCAASGYTFQRYAMGWYRQAPGKERELVAAISSSGGSTYYADSVKGRFTISRDNAKNTVYLQMNSLKPEDTAVFYCAVRFVSAWSRYDYWGQGTQVTVSS,high polyreactivity
8,QVQLVESGGRLVQAGGSLRLSCAASVSTFRKYAMGWYRQAPGKEREFVAAITWSTGTTYYADSVKGRFTISRDTAKNTVYLQMNSLKPEDTAVYYCAADSQPPHELYESIEHESWGQGTQVTVSS,low polyreactivity
9,QVQLVESGGRLVQAGGSLRLSCADSGSIFEYYAMGWYRQAPGKEREFVAAISDNGDSTYYADSVKGRFTISRDNAKNTVYLQMNSLKPEDTEVYYCNKTPVDDPPWCYDSWGQGTQVTVSS,low polyreactivity
10,QVQLVESGGRLVQAGGSLRLSCAPSGFIFRFNAMGWYRQPPGKVSELVARIDWSGGSTYYADSVKGRFTISRENAKYTVYFQMNSLKPEDTAVYYCAAERYFEYSECDYWGQGTQVTVSS,low polyreactivity
11,QVQLVESGGRLVQAGGSLRLSGAASGFTFGRNAKGWYRPAPGKERELVASIDWSGGSTYYADSVKGRFTISRDNAKNTFFLQMNSLKPEETAVYYCAVGPNSVGNRSYGFDYWGQGTQVTVSS,low polyreactivity
12,QVQLVESGGRLVQAGGSLRLSGADSGSIFSSYAMGWNRPAPGKERELVAAISSSGDSTYADSEKGRFTISRDNAKNSVDLQMNSLKPEDTAVYYCAVGGAGSDDYWGQGTQVTVSS,low polyreactivity
13,QVQLVESGGRLVQAGGSLRLSSAASGRTFRTYALGWYRQAPGTEREFVAAISRRSGITYYADSVKGRFTISRDNAKNTVYLQMNSLKPEDTAVYYCAATGYTGYSRYYYWGQGTQVTVSS,high polyreactivity
14,QVQLVESGGRLVQAGGSLRLTCAASGNIFANNAMGWYRQAPGTERELVAAISQSGGNTYYEDSVKGRFTISRDNAKNTVYLQMNSLKPEDTAVYYCNAKTYGYNYDSWGQGTQVTVSS,low polyreactivity
15,QVQLVESGGRLVQAGGSLRLTCASSGRIFRYYAMGWYRQAPGKERQLVAAISSSGGSTYYADSVKGRFTISRDNAKNTVYLQMNSLKPEDTAVYYCAARYHIDTLFYGSRYDYWGQGTQVTVSS,high polyreactivity
16,QVQLVESGGRLVQAGGTLRLSCAASGFIFTPYAMGWYRQAPGKERELVAAITWRGARTYYADSVKGRFTISRDNANNTVYLQMNSLKPEDTAVYYCATTFTGYNKEFGYWGQGTQVTVSS,high polyreactivity
17,QVQLVESGGRLVQAGGTLRLSCAASGRNVGLYAMGWSRQAPGKERELVAAISSTGRTTYADSVKGRFTISRDNAKNNVYLQMNSLIPEVTAVYYCKADARSVCWYYYACLFDYWGQGTQGTVSS,low polyreactivity
18,QVQLVESGGRLVQAGGTLRLSCAASGRTLSNYALGWSRQAPGKERELVAAISSSGSTNYADSVKGRFTISRDNAKNTVYLQMNSLKPEDSAVYYCAAESWFLRWYRYDYWGQGTQVTVSS,low polyreactivity
19,QVQLVESGGRLVQEGGSLRLRCAASGSIFSGYAMGWSRQAPGKERELVAVITRGGNTNYADSVKGRFTISRDNAKNTVSLQMNSLTPEDTAVYYCAVDLRKSYRHKFDFNYWGQGTQVTVSS,low polyreactivity
20,QVQLVESGGRLVQEGRSLRLSCAASGSIFSRYAMGWYRQAPRKERELVAAITWSGGSTYYADSVKGRFTISRDNAKNNVYLQMNSLKPDDTAVYYCAAVGYAPYNHRYDSWGQGTQVTVSS,low polyreactivity

# From the nanobody polyreactivity screen of Harvey et al. (2022)
